The labels stand for the following.
B1: Mouse chimeric ALULA (murine ALULA variable domains fused to human IgG1 heavy chain and human kappa light chain domains) (antibody, V domains shown)
VH: EVQVQQSGTVLARPGASVKMSCKASGYTFTSYWMHWVKQRPGQGLEWIGAIYPGNSDTSYNQKFKGKAKLTAVTSPNTAYMELSSLTNEDSAVYYCTTTTYGYDWFAYWGQGTLVTVSA
VL: NIMMTQSPSSLTVSAGEKVTMSCKSSQSVLYSSNQKNYLAWYQQKPGQSPKLLIYWASTRESGVPDRFTGSGSGTDFTLTISSVQAEDLAVYYCHQYLSSLTFGAGTKLELK
notes: also called chimeric form of ALULA; chimeric murine antibody
B2: VH5/VL2 Agly-IgG4.P (S228P)/IgG1 (N297Q) (antibody, V domains shown)
VH: EVQVQQSGGGLVKPGGSLRLSCKASGYTFTSYWMHWVKQAPGKGLEWVGAIYPGNSDTSYNQKFKGKATLSAVTSPNTAYLQMNSLKTEDTAVYYCTTTTYGYDWFAYWGQGTLVTVSS
VL: NIQMTQSPSSLSASVGDRVTMSCKSSQSVLYSSNQKNYLAWYQQKPGKSPKLLIYWASTRESGVPDRFTGSGSGTDFTLTISSLQPEDFATYYCHQYLSSLTFGQGTKLEIKR
notes: also called VH5/VL2 (Agly-IgG4P/G1); H5/L2
B3: VH2/VL2 Agly-IgG4.P (S228P)/IgG1 (N297Q) (antibody, V domains shown)
VH: B2 VH with Q5V, G16E, K23A, A68F, L70I, V73D, P76S
VL: B2 VL
notes: also called VH2/VL2 (Agly-IgG4P/G1); H2/L2
B4: VH4/VL0 Agly-IgG4.P (S228P)/IgG1 (N297Q) (antibody, V domains shown)
VH: B2 VH with Q5V, G16E, A68F, L70I, V73D
VL: B2 VL with N1D, L11V, M21I, S22T, S49A, D66S, T69S, L109V
notes: also called VH4/VL0 (Agly-IgG4P/G1); H4/L0
B5: VH4/VL2 Fab fragment (Fab, V domains shown)
VH: B2 VH with Q5V, G16E, A68F, L70I, V73D
VL: NIQMTQSPSSLSASVGDRVTMSCKSSQSVLYSSNQKNYLAWYQQKPGKSPKLLIYWASTRESGVPDRFTGSGSGTDFTLTISSLQPEDFATYYCHQYLSSLTFGQGTKLEIK
notes: also called H4/L2 (Fab source); H4L2 hIgG1 Fab
B6: Mouse chimeric ALULA Fab fragment (Fab, V domains shown)
VH: B1 VH
VL: B1 VL
notes: also called Mouse chimeric ALULA (Fab source)
B7: VH5/VL2 Fab fragment (Fab, V domains shown)
VH: B2 VH
VL: B5 VL
notes: also called H5/L2 (Fab source); H5L2 hIgG1 Fab

Changes are numbered by the printed parent chain. Numbers in names are those of the source.

For orientation: EC50 means the concentration needed to bring the measured effect to its halfway point. In general, IC50 refers to the point on the concentration scale where inhibition reaches its midpoint. Usually Kd stands for the free concentration of one partner at which half of the binding sites on the other are occupied at equilibrium, for simple one-to-one binding.

The first assay deals with T1, human αvβ5 expressed on BaF3 cells (stably transfected with human αv and β5 subunits) (human, UniProt P06756 31-1048; P18084 24-799). Nature of the assay: cell-based or functional assay.
T1 sequence (P06756 31-1048 limits assumed, chain 1 of 2): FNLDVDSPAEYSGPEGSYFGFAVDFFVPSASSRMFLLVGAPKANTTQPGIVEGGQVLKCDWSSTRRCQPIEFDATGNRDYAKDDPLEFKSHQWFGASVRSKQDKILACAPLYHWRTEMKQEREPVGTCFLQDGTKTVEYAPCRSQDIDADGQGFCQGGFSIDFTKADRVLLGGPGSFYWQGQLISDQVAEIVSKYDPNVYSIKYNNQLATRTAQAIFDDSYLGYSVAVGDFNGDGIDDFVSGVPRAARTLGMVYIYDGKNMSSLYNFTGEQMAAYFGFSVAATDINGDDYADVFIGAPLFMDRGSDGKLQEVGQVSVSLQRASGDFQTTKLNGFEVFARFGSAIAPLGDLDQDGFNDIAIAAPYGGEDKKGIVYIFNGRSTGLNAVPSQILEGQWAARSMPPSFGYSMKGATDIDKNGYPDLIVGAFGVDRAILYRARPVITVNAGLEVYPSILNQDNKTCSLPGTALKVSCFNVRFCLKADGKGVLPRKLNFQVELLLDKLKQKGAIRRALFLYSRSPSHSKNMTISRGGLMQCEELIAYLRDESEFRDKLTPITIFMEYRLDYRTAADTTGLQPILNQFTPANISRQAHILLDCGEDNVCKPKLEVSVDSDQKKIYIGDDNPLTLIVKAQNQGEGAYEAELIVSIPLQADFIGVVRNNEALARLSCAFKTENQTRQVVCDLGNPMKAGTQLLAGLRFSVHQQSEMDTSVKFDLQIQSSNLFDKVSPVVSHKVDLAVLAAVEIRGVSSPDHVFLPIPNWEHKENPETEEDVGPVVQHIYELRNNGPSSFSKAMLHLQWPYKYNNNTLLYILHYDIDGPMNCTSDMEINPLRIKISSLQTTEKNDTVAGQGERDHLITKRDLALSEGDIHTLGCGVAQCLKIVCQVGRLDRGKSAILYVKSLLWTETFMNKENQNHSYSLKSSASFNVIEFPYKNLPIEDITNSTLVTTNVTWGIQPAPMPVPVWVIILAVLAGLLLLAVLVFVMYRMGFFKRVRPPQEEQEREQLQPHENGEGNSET
T1 sequence (P18084 24-799 limits assumed, chain 2 of 2): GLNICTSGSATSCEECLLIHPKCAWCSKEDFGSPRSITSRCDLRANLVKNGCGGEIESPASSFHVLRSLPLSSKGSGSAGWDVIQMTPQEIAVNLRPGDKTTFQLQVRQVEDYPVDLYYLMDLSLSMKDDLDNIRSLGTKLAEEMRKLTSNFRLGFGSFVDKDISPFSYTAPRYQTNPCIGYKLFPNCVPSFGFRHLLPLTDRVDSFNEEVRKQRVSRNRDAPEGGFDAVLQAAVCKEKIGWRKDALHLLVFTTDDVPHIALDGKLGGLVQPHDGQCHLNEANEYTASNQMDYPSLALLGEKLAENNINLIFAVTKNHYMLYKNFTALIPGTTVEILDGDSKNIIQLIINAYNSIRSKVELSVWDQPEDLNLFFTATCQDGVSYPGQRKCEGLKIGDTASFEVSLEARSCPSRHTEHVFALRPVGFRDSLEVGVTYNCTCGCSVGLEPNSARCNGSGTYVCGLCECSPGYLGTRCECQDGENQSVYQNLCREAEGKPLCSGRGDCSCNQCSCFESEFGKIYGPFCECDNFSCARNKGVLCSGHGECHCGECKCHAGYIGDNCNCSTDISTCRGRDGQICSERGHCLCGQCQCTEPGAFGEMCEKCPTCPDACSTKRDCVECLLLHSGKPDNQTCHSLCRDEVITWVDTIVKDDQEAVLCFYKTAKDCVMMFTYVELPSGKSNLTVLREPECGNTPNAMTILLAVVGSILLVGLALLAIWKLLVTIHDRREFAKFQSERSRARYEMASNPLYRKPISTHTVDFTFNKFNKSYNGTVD
Consider B1, for which the “BaF3-hu αvβ5 Cell adhesion to vitronectin (IC50, nM)” value was found to be 0.17 nM.

B2: the “BaF3-hu αvβ5 Cell adhesion to vitronectin (IC50, nM)” value stood at 0.29 nM and the “BaF3-hu αvβ5 Cell adhesion to vitronectin, Fold chg. (against mouse chimeric ALULA)” value was 1.7 fold.

Regarding B3, the “BaF3-hu αvβ5 Cell adhesion to vitronectin (IC50, nM)” value came to 0.3 nM and the “BaF3-hu αvβ5 Cell adhesion to vitronectin, Fold chg. (against mouse chimeric ALULA)” value came to 1.8 fold.

B4: the “BaF3-hu αvβ5 Cell adhesion to vitronectin (IC50, nM)” value came out at 0.09 nM and the “BaF3-hu αvβ5 Cell adhesion to vitronectin, Fold chg. (against mouse chimeric ALULA)” value is 0.5 fold.

A further assay has as its target cynomolgus monkey αvβ5 expressed on BaF3 cells (cynomolgus monkey, UniProt A0A2K5WCD3 31-1048; A0A2K5UEB4 24-799). Nature of the assay: cell-based or functional assay.
With B1, the “BaF3-cyno αvβ5 Cell adhesion to vitronectin (IC50, nM)” value was found to be 0.61 nM.

For the molecule B2, the “BaF3-cyno αvβ5 Cell adhesion to vitronectin (IC50, nM)” value came to 0.63 nM and the “BaF3-cyno αvβ5 Cell adhesion to vitronectin, Fold chg. (against mouse chimeric ALULA)” value amounted to 1 fold.

For the molecule B3, the “BaF3-cyno αvβ5 Cell adhesion to vitronectin (IC50, nM)” value was determined as 0.61 nM and the “BaF3-cyno αvβ5 Cell adhesion to vitronectin, Fold chg. (against mouse chimeric ALULA)” value came to 1 fold.

As to B4, the “BaF3-cyno αvβ5 Cell adhesion to vitronectin (IC50, nM)” value worked out at 0.43 nM and the “BaF3-cyno αvβ5 Cell adhesion to vitronectin, Fold chg. (against mouse chimeric ALULA)” value is 0.7 fold.

In a further assay the target is T1, human αvβ5 expressed on BaF3 cells …. Nature of the assay: FACS on BaF3-hu αvβ5 cells. The method, then: FACS Binding Assay: Cells were washed one time in PBS, and then resuspended in FACS buffer (1×PBS, 1% BSA, 1 mM CaCl₂, and 1 mM MgCl₂). 1×10⁶ cells were then incubated on ice for 1 hr in FACS buffer containing the test antibody in a total volume of 50 μl. After incubation, the cells were washed two times with ice cold FACS buffer, resuspended in 50 μl of FACS buffer containing 3 μg/ml goat anti-mouse IgG AlexaFluor488 (Jackson ImmunoResearch), and incubated on ice for 30 min. The cells were then washed twice with ice cold FACS buffer and fixed in 1% PFA overnight. Cell aggregates were removed by filtering through 40 μm filter plates (Millipore) and binding of the labeled secondary antibody was monitored by flow cytometry using a FACS Calibur (BD Biosciences).
(§1) Based on the results described above in Example 4, four humanized ALULA constructs: VH2/VL2, VH4/VL0, VH4/VL2, and VH5/VL2, were selected for further testing. These VH/VL constructs were expressed as fusion proteins with the hybrid, aglycosylated IgG4.P (S228P)/IgG1 (N297Q) domain, and human kappa light chain domain, and purified from the conditioned medium of stably transfected CHO cells. Each humanized ALULA construct was assessed for binding using competition ELISA with murine ALULA and by FACS using human αvβ5-transfected BaF3 cells. Each humanized ALULA construct was also assessed for blocking binding/adhesion to vitronectin by ELISA or cell adhesion assays using BaF3 cells stably transfected with human or cynomolgous monkey αvβ5. The humanized ALULA constructs were compared to a chimeric form of ALULA comprising the murine heavy and light chain variable domains fused to human IgG1 heavy chain and human kappa light chain domains. The four humanized ALULA constructs behaved similarly in the assays, with H4/L2 generally having similar or slightly higher affinity/blocking potency than the other constructs (see, Table 3).
In turn, B1 gave an EC50 of 5.06 nM.

B2: the response was half-maximal at 2.9 nM (EC50) and the “Fold chg. (EC50 against mouse chimeric ALULA)” value stood at 0.5 fold.

For B3, a half-maximal effect (EC50) was put at 5.73 nM and the “Fold chg. (EC50 against mouse chimeric ALULA)” value came to 1.1 fold.

Regarding B4, the EC50 amounted to 2.52 nM and the “Fold chg. (EC50 against mouse chimeric ALULA)” value came out at 0.5 fold.

The target of a further assay is T2, human soluble αvβ5 protein (extracellular domains of human αv and β5 integrin subunits) (human, UniProt P06756 31-992; P18084 24-719).
T2 construct: also called biotin-αvβ5; hsαvβ5
T2 sequence (P06756 31-992 limits assumed, chain 1 of 2): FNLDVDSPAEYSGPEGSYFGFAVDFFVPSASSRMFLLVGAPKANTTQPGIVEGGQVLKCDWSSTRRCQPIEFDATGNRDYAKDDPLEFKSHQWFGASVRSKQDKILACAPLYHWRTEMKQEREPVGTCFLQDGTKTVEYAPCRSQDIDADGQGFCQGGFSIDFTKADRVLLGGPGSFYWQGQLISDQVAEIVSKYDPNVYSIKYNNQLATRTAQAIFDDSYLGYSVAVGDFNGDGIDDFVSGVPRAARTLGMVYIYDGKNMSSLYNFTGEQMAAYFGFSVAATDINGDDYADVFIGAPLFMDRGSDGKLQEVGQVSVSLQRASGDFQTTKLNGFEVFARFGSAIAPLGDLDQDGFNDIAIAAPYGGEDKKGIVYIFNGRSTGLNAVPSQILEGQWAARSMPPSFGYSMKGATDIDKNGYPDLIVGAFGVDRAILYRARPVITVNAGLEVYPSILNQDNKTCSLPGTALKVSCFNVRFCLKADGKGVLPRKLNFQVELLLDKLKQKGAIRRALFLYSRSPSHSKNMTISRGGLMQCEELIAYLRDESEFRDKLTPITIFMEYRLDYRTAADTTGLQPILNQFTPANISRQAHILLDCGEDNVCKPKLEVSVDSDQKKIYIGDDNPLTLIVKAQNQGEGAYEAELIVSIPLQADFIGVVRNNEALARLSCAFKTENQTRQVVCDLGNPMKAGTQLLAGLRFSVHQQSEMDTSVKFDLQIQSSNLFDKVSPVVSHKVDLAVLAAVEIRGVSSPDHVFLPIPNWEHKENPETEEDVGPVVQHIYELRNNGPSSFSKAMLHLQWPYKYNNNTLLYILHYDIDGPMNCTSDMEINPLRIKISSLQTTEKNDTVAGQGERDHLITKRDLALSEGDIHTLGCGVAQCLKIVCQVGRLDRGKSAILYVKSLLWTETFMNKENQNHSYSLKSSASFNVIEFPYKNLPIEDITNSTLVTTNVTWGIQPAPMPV
T2 sequence (P18084 24-719 limits assumed, chain 2 of 2): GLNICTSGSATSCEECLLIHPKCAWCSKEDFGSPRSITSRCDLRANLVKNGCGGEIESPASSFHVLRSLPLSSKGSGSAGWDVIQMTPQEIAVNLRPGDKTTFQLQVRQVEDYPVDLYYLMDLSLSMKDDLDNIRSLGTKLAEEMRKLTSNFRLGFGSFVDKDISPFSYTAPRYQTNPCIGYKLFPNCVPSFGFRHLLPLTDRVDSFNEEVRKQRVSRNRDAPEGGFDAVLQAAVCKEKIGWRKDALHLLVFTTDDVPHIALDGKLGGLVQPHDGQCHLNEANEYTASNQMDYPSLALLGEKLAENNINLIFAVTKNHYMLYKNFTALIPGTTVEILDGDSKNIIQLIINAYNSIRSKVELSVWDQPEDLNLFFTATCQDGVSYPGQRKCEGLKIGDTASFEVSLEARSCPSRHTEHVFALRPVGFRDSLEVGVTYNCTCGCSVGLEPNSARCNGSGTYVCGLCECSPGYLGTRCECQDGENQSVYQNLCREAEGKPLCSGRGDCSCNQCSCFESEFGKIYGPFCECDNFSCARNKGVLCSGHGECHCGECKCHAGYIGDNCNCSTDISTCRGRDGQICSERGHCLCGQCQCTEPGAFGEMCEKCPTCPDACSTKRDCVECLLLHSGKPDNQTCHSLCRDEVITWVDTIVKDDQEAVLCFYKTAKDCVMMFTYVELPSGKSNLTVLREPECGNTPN
Nature of the assay: αvβ5-vitronectin blocking ELISA. The method, then: Vitronectin Inhibition ELISA: 96-well microtiter plates were coated with 5 μg/ml purified human plasma vitronectin diluted in PBS (50 μl/well) at 4° C. overnight. After the coating solution was removed, the plates were blocked with 300 μl/well of 1% BSA/TBS at 25° C. for 1 hr. The plate was washed with wash buffer (0.05% Tween-20 in TBS containing 1 mM CaCl₂ and 1 mM MgCl₂), and dilutions of humanized antibodies mixed with 1 nM soluble αvβ5 protein in TBS containing 1% BSA, 1 mM CaCl₂ and 1 mM MgCl₂ were added (50 μl/well) and incubated at 25° C. for 1 hr. The plate was washed 4 times with wash buffer in an automated plate washer and incubated sequentially with 50 μl/well of the anti-beta5 monoclonal antibody 15F11 (at 0.5 ug/mL) in for 1 hr at 25° C. in TBS containing 1% BSA, 1 mM CaCl₂ and 1 mM MgCl₂. After washing the plate 4 times with wash buffer, 100 μl/well of a 1:5000 dilution of a peroxidase-conjugated goat anti-mouse antibody in TBS containing 1% BSA, 1 mM CaCl₂ and 1 mM MgCl₂ were added and incubated for 1 hr at 25° C. Bound protein was detected using the TMB substrate and indicated by the absorbency measured at 450 nm.
as §1
In general terms: In an ELISA, binding on a coated surface is turned into a signal by an enzyme label.
B1 registered an IC50 of 1.6 nM.

As to B2, the “Fold chg. (IC50 against mouse chimeric ALULA)” value is 0.8 fold and it took 1.24 nM to reach half-maximal inhibition (IC50).

As for B3, the “Fold chg. (IC50 against mouse chimeric ALULA)” value turned out to be 1.1 fold and the IC50 came out at 1.74 nM.

Turning to B4, the “Fold chg. (IC50 against mouse chimeric ALULA)” value is 1 fold and the half-inhibitory concentration (IC50) turned out to be 1.52 nM.

For another assay, the target named is T2, human soluble αvβ5 protein …. Nature of the assay: ALULA competition ELISA on soluble human αvβ5. The method, then: Competition ELISA: A 96-well microtiter plate was coated with 50 μl/well of 5 μg/mL soluble human αvβ5 protein at 4° C. overnight. The plate was washed with wash buffer (0.05% Tween-20 in PBS) four times in an automated plate washer. 300 μl/well of 1% BSA in PBS was added and incubated for 1 hr at 25° C. to block nonspecific binding. The plate was washed as above, and dilutions of humanized antibodies mixed with 1 nM murine ALULA in PBS containing 1% BSA, were added (50 μl/well). The plate was incubated for 1 hr at 25° C., washed, and then incubated for 40 minutes with 100 μl/well of […] goat anti-mouse antibody. Bound antibody was detected using 3,3′,5,5′-tetramethylbenzidine (TMB). Binding was indicated by the absorbency measured at 450 nm.
as §1
B1: the IC50 is 1.81 nM.

As to B2, the “Fold chg. (IC50 against mouse chimeric ALULA)” value was found to be 1 fold and the half-maximal inhibitory concentration (IC50) was 1.85 nM.

As for B3, the “Fold chg. (IC50 against mouse chimeric ALULA)” value is 1.4 fold and the IC50 is 2.61 nM.

As for B4, the “Fold chg. (IC50 against mouse chimeric ALULA)” value came to 1 fold and the IC50 was 1.84 nM.

Another assay has as its target T1, human αvβ5 expressed on BaF3 cells …. Nature of the assay: FACS binding curves on αvβ5-BaF3 cells, 10,000 cells/experiment; monovalent Fab, not mAb. As for the experimental part: This experiment was carried out to confirm the affinity of ALULA-H4/L2-IgG4.P(S228P)/IgG1(N297Q) for cell surface expressed αvβ5 stably expressed on murine BaF3 cells. Binding curves were generated using a lower number of cells to ensure that antibody was not simply titrating the receptors on the cell.
For B5, the dissociation constant Kd worked out at 0.42 nM.

Another assay concerns the target T2, human soluble αvβ5 protein …. Nature of the assay: ELISA, Fab blocking of 2 nM soluble αvβ5 binding to immobilized human plasma vitronectin. As for the experimental part: Fab fragments of the four constructs of Example 6 were generated from the corresponding IgG1(N297Q) versions by digestion with papain. The ability of each Fab to block 2 nM soluble αvβ5 binding to immobilized human plasma vitronectin was determined by ELISA.
Turning to B6, the half-inhibitory concentration (IC50) is 4.8 nM.

Consider B5, for which the “Fold change (IC50 against mouse chimeric ALULA)” value is 0.9 fold and the IC50 worked out at 4.3 nM.

On to B7, for which the “Fold change (IC50 against mouse chimeric ALULA)” value stood at 1.4 fold and the IC50 came to 6.8 nM.

These data come from patent US20170362324A1 (Biogen, published 2017).
